In US6586222 (CHIRON, dated 2003):
The star is where a group is joined. P(O)(OPh)2 = diphenyl phosphonate replacing C-terminal COOH, O=P(Oc1ccccc1)(Oc1ccccc1)*; Boc = CC(C)(C)OC(=O)*

T1: purified, activated recombinant human PR-3 (from proPR-3 secreted by Sf9 insect cells, activated with DPPI) (human, UniProt P24158 28-256)
T1 sequence: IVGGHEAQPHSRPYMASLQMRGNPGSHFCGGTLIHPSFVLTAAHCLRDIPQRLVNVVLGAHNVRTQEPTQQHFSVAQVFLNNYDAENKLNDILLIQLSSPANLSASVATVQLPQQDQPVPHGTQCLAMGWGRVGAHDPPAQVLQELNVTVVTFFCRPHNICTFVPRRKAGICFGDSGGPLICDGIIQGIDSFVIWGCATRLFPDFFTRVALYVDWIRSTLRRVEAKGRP


Target: T1, purified, activated recombinant human …
Experiment: cell-based or functional assay

IC50 of residual enzyme activity (Boc-Ala-ONp substrate, 1 hour at 25° C.) [µM]	Binder
~10	Boc-Ala-Pro-Val-{P(O)(OPh)2} [Boc-Ala-Pro-Val-p(OPh)2]
~0.4	Boc-Val-Pro-Val-{P(O)(OPh)2} [Boc-Val-Pro-Val-p(OPh)2]
